From patent US20160279215A1, “NOVEL PEPTIDES AND COMBINATION OF PEPTIDES FOR USE IN IMMUNOTHERAPY AGAINST VARIOUS TUMORS” (immatics biotechnologies GmbH, priority 2015, published 2016)

Molecular target: T1, HLA-A*02:01 (human)
T1 construct: MHC monomers captured on streptavidin plates; the UV-sensitive peptide is cleaved and exchanged with the test peptide; also called peptide-receptive MHC molecules; MHC class I
Assay: UV ligand-exchange ELISA (anti-b2m); +++ = exchange yield >=50
Description: Candidate peptides for T cell based therapies according to the present invention were further tested for their MHC binding capacity (affinity). The individual peptide-MHC complexes were produced by UV-ligand exchange, where a UV-sensitive peptide is cleaved upon UV-irradiation, and exchanged with the peptide of interest as analyzed. Only peptide candidates that can effectively bind and stabilize the peptide-receptive MHC molecules prevent dissociation of the MHC complexes. To determine the yield of the exchange reaction, an ELISA was performed based on the detection of the light chain (β2m) of stabilized MHC complexes. The assay was performed as generally described in Rodenko et al. (Rodenko et al., 2006).
96 well MAXISorp plates (NUNC) were coated over night with 2 ug/ml streptavidin in PBS at room temperature, washed 4× and blocked for 1 h at 37° C. in 2% BSA containing blocking buffer. Refolded HLA-A*02:01/MLA-001 monomers served as standards, covering the range of 15-500 ng/ml. Peptide-MHC monomers of the UV-exchange reaction were diluted 100 fold in blocking buffer. Samples were incubated for 1 h at 37° C., washed four times, incubated with 2 ug/ml HRP conjugated anti-β2m for 1 h at 37° C., washed again and detected with TMB solution that is stopped with […]. Absorption was measured at 450 nm. […]

Binder: SLTGANITV
- peptide exchange yield: 50 to 75%
